Biological target: F-actin from chicken breast muscle (chicken, UniProt P68139 1-377)
Assay: co-sedimentation

binding result: binds
B1: 110-kdalton protein-calmodulin complex (complex)
chain 1: MEATTSLLDAAAVGDLVMLDPLSEESLLRTLQERFSRGEIYTYIGEVVISVNPYKPLPIYTPEKVEEYHNCNFFAVKPHIYAIADDAYRSLRDRDRDQCILITGESGAGKTEASKLVMSYVAAVSSKGEEVDKVKEQLLQSNPVLEAFGNAKTIRNDNSSRFGKYMDVEFDFKGDPLGGVISNYLLEKSRIVRHVKGERNFHIFYQLLAGGSAQLLQQLKLRPDCSHYGYLNHEKSVLPGMDDAANFRAMQDAMAIIGFAPAEVTALLEVTAVVLKLGNVKLSSCFQASGMEASSITEPRELQEISQLIGLDPSTLEQALCSRTVKVRDESVLTALSVSQGYYGRDALAKNIYSRLFDWLVNRINTSIQVKPGKQRKVMGVLDIYGFEIFQDNGFEQFIINYCNEKLQQIFILMTLKEEQEEYVREGIQWTPVEFFDNSIICDLIENSKVGILAMLDEECLRPGTVNEDTFITKLNQIFASHKRYESKETLNAKHVTDVSLPLRCFRIHHYAGKVTYNVTGFIEKNNDLLFRDLSQAMWAARHTLLRSLFPEGDPQRPSLKLPPTTGSQFKASVATLMKNLYSKNPNYIRCIKPNDTKTAMLFTPDLVLAQVRYLGLMENVRVRRAGYAFRQLYQPFLERYKMLSRKTWPRWTGGDREGAEVLLAELKFPPEELAYGHTKIFIRSPRTLFDLEKRRQQRVAELATLIQKMFRGWCCRKRYQLMRKSQILISAWFRGHMQRNRYKQMKRSVLLLQAYARGWKTRRMYRRYFRSDACTRLSNFIYRRMVQKYLMGLQKNLPPMAVLDRTWPPAPYKFLSDANQELKSIFYRWKCKKYREQLTPQQRAMLQAKLCASELFKDKKALYAQSLQQPFRGEYLGLTQNRKYQKLQAVAKDKLVMAEAVQKVNRANGKTVPRLLLLTTEHLVLADPKAAQPKMVLSLCDIQGASVSRFSDGLLALHLKETSTAGGKGDLLLVSPHLIELVTRLHQTLMDATAQALPLSIADQFSTRFPKGDVAVTVVESAKGGGDVPVCKKRGSHKMEILVH
chain 2: […]

Source: publication PMC2112603 (The Journal of Cell Biology, 1983)
